Experimental findings from patent US20110287458A1 (TEXAS A AND M UNIVERSITY SYSTEM, published 2011) are described below.

The data set concerns the molecule itself. Kind of data set: native PAGE, self-association. On the procedure:
Native polyacrylamide gel electrophoresis (PAGE) was performed by use of the MINI PROTEAN® 3 electrophoresis cell and a discontinuous buffer system (Ornstein-Davis) according to the standard procedures given by the manufacturer (Bio-Rad Laboratories). Using native PAGE, pure canine S100A12 was evaluated in the presence of 0.3 mM Ca²⁺, 3 mM Ca²⁺, 10 mM Ca²⁺, and 10 mM EGTA.

B1: canine S100A12 (other)
chain: TKLEDHLEGIVDVFHRYSARVGHPDTLSKGEMKQLIIRELPNTLKNTKDQATVDKLFQDLDADKDGQVNFNEFISLVSVVLDTSHKNTHK
notes: Purified from canine leukocytes; Runs as a non-covalent homodimer on native PAGE; In the RIA the tracer is 125I-labelled; In serum and fecal extracts it is the native protein; also called calgranulin C; EN-RAGE
Take B1: the binding result is recorded as “binds”.
